Measured values as given in patent CN114957460A (dated 2022).

Key:
Experiment in all cases: cell-based or functional assay
双组分毒素HlgA+LukD = 双组分毒素HlgA+LukD (金黄色葡萄球菌 (Staphylococcus aureus), UniProt P0A074 30-309; O54082 27-327)
双组分毒素HlgAB = 双组分毒素HlgAB (金黄色葡萄球菌 (Staphylococcus aureus), UniProt P0A074 30-309; P0A077 26-325)
双组分毒素HlgA+LukF = 双组分毒素HlgA+LukF (金黄色葡萄球菌 (Staphylococcus aureus), UniProt P0A074 30-309; P31715 26-323)

Measured: 兔红细胞溶血中和 (上清OD405)

B1: 鼠源抗原结合蛋白17C7 (antibody, V domains shown)
VH: EVQLQQSGAELVRSGASVKLSCTASGFNIKDYYMHWVKQRPEQGLEWIGWIDPENDIGEYAPKFQGKATMTADTSSNTAYLQLSSLTSEDTAVYFCNALWGGVLDYWGQGTSVTVSA
VL: DVVMTQTPLSLPVSLGDQASISCRSSQSLVNSNGNTYLHWYLQKPGQSPNLLIYRVSNRFSGVPDRFSGSGSGTDFTLKISRVEAEDLGVYFCSQSTHVPYTFGGGTKLEIKR
4 µg: all assays above
